US20110217305A1 (SYMPHOGEN A S, published 2011)

Molecular target: T1, Fc-conjugated HER2 (HER2-Fc), R&D Systems cat. No 1129-ER (human, UniProt P04626 23-652)
T1 construct: Bought reagent; Captured on an anti-Fc surface in the SPR binning; also called rhHER2; HER2 protein (R&D Systems cat.#1129-ER); not shown: Fc part of the bought fusion protein
Assay: SPR epitope binning (ProteOn XPR36), HER2-Fc captured via anti-Fc; competitor 4387; class limits for the pair

B1: antibody 4382 (antibody, human IgG1, kappa, V domains shown)
VH: EVQLQQSGPELVKPGASVKISCTASGYTFTDYYMNWVKQSHGKSLEWIGDINPNNGGTNYNQKWKGKATLTIHKSSSTAYMELRSLTSEDSAVYFCVPGGLRSYFDYWGQGTTLTVSS
VL: DIVMTQSLKFMSASVGDRVSITCKASQDVSAAVAWYQQKPGQSPELLIYWASTRHTGVPDRFTGSGSGTDYTLTISSVQAEDLALYYCQQHYTTPPTFGGGTKLEIKR
notes: Chimeric murine/human IgG1 kappa
% inhibition: 25 to 50%
